# Test results reported in IntAct's records for PubMed 11238466.
# B1: CARD domain-containing protein E10 (Equine herpesvirus 2 (strain 86/87)), Q66677 (parent)
# chain: MAEKYPLQAGDPCVTLTEEDIWDVERLCLEELRVLLVSHLKSHKHLDHLRAKKILSREDAEEVSSRATSRSRAGLLVDMCQDHPRGFQCLKESCKNEVGQEHLVDLLERAFEKHCGDKLTQKWWESGADGRNPRRPPGSEDNSGYTALLPTNPSGGGPSIGSGHSRPRGRDDSGGIGGGVYPFSHGGARVVGGGWGGWGESGGAGRGGSLLSGGHGGHPPHGGPGGGGRDYYGGGGSGYYESIPEPANFPNSGGGGRGGGVRYDAGGDGRLGGLPPDPQEVDDPSLSVQGRGGPAPDPPSPPLRTRRFFCC
# partner: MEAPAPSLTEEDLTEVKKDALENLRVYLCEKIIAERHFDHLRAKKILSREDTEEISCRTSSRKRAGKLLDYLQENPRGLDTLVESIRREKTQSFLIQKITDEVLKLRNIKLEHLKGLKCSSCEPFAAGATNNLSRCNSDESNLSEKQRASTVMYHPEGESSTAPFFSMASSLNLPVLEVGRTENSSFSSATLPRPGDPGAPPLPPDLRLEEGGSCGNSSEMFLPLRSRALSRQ
# B2: CARD domain-containing protein E10 (Equine herpesvirus 2 (strain 86/87)), Q66677 (parent)
# chain: B1 chain
# partner: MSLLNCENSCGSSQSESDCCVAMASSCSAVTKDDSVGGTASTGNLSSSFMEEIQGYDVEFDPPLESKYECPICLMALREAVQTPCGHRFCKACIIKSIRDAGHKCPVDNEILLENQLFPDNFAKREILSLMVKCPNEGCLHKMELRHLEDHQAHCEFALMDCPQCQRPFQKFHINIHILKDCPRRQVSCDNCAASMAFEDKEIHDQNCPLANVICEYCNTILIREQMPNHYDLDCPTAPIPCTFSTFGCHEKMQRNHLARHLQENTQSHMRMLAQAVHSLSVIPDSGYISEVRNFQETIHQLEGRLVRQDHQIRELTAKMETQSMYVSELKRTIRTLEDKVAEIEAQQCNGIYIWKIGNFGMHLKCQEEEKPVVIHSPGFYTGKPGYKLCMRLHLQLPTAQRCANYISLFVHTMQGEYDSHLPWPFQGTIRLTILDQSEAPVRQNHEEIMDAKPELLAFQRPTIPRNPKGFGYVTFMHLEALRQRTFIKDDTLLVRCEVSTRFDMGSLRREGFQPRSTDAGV
# Variants of: B1
# Details: with bcl10_mouse Bcl10, Q9Z0H7
row,Variant,effect of a mutation on the interaction
1,MAEKYPLQAGDPCVTLTEEDIWDVERLCLEELRVLLVSHLKSHKHLDHRRAKKILSREDAEEVSSRATSRSRAGLLVDMCQDHPRGFQCLKESCKNEVGQEHLVDLLERAFEKHCGDKLTQKWWESGADGRNPRRPPGSEDNSGYTALLPTNPSGGGPSIGSGHSRPRGRDDSGGIGGGVYPFSHGGARVVGGGWGGWGESGGAGRGGSLLSGGHGGHPPHGGPGGGGRDYYGGGGSGYYESIPEPANFPNSGGGGRGGGVRYDAGGDGRLGGLPPDPQEVDDPSLSVQGRGGPAPDPPSPPLRTRRFFCC [L49R],decreasing interaction

# Variants of: B2
# Details: with traf6_human TRAF6, Q9Y4K3
row,Variant,effect of a mutation on the interaction
1,MAEKYPLQAGDPCVTLTEEDIWDVERLCLEELRVLLVSHLKSHKHLDHLRAKKILSREDAEEVSSRATSRSRAGLLVDMCQDHPRGFQCLKESCKNEVGQEHLVDLLERAFEKHCGDKLTQKWWESGADGRNPRRPPGSEDNSGYTALLPTNPSGGGPSIGSGHSRPRGRDDSGGIGGGVYPFSHGGARVVGGGWGGWGESGGAGRGGSLLSGGHGGHPPHGGPGGGGRDYYGGGGSGYYESIPEPANFPNSGGGGRGGGVRYDAGGDGRLGGLPPDGQAVDDPSLSVQGRGGPAPDPPSPPLRTRRFFCC [P278G;E280A],decreasing interaction
